Measured values as given in patent publication EP3831849A1 (LamKap Bio beta AG, dated 2021).
Where a chain is given by its changes, count along the chain named.

T1: human CEACAM5 expressed on MKN-45 wt cells (human, UniProt P06731 35-702)
T1 construct: MKN-45 cells also express CD47 and CEACAM6; also called CEACAM5 on MKN45
T1 sequence: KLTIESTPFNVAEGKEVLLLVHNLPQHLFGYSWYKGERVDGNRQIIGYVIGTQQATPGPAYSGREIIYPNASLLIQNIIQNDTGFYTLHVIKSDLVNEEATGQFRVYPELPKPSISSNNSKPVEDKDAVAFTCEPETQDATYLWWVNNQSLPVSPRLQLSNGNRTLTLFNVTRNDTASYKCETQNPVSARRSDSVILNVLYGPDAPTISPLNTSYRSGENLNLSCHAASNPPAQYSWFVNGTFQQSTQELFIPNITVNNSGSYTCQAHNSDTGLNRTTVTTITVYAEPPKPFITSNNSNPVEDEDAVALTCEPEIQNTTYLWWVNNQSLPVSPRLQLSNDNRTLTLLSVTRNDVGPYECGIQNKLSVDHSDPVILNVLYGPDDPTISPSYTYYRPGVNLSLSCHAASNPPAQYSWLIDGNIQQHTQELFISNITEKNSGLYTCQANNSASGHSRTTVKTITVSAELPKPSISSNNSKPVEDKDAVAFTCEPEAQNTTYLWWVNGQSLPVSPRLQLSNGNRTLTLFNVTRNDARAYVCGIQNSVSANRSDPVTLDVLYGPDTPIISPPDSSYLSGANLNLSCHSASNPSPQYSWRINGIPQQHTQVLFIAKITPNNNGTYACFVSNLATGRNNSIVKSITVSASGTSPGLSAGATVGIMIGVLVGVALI

T2: biotinylated recombinant human CEACAM5 (human, UniProt P06731 35-685, biotin on the C-terminal Avitag)
T2 construct: also called CD66e; not shown: C-terminal Avitag plus hexa-histidine tag, human Fc or mouse Fc
T2 sequence: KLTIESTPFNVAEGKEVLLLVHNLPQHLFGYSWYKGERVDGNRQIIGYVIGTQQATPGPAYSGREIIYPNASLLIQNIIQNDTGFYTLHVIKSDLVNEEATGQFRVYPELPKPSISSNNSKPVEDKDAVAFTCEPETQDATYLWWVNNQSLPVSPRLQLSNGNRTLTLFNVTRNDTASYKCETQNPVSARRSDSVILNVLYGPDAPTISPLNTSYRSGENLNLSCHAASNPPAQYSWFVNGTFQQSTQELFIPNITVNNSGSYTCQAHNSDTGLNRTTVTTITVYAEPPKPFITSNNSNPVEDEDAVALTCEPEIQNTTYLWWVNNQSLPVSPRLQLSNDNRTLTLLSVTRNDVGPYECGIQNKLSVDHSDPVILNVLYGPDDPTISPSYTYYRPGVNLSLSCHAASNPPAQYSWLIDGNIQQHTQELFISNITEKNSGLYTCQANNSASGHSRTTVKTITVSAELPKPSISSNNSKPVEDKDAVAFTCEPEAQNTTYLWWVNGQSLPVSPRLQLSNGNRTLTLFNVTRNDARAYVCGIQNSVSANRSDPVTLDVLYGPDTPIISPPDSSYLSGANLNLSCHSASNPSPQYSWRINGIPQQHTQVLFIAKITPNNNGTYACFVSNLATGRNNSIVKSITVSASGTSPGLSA

B1: K2AC41 (bispecific antibody, human IgG1, kappa, lambda)
heavy: not shown
light 1: DIQMTQSPSSLSASVGDRVTITCQASQEIAATLNWYQQKPGKAPKLLIYNYSTLETGVPSRFSGSGSGTDFTFTISSLQPEDIATYYCQQVGLNPENTTFGGGTKLTVLGQPKAAPSVTLFPPSSEELQANKATLVCLISDFYPGAVTVAWKADSSPVKAGVETTTPSKQSNNKYAASSYLSLTPEQWKSHRSYSCQVTHEGSTVEKTVAPTECS
light 2: not shown
notes: 6 is full length; CEACAM arm light chain hybrid (VK + lambda CL), CD47 arm (K2) fully kappa
B2: K2AC43 (bispecific antibody, human IgG1, kappa, lambda)
heavy: not shown
light 1: B1 light 1 with E28N, A30P, A31R, L33I, N50D, Y51I, T53N, N97L
light 2: not shown
notes: 6 is full length; CEACAM arm light chain hybrid, CD47 arm fully kappa
B3: K2AC42 (bispecific antibody, human IgG1, kappa, lambda)
heavy: not shown
light 1: B1 light 1 with E28R, A31R, Y51F, T53A, N94D, E96N, N97L
light 2: not shown
notes: as for B2
B4: AC41K2 H-CL1 (bispecific antibody, human IgG1, kappa, lambda)
heavy: not shown
light 1: not shown
light 2: DIQMTQSPSSLSASVGDRVTITCRASQSISSYLNWYQQKPGKAPKLLIYAASSLQSGVPSRFSGSGSGTDFTLTISSLQPEDFATYYCQQMHPRAPKTFGGGTKLTVLGQPKAAPSVTLFPPSSEELQANKATLVCLISDFYPGAVTVAWKADSSPVKAGVETTTPSKQSNNKYAASSYLSLTPEQWKSHRSYSCQVTHEGSTVEKTVAPTECS
notes: CEACAM5xCD47 κλ body, IgG1, common heavy chain
B5: AC43K2 H-CL1 (bispecific antibody, human IgG1, kappa, lambda)
heavy: not shown
light 1: not shown
light 2: B4 light 2
notes: CEACAM5xCD47 κλ body, IgG1, common heavy chain; CEACAM arm light chain fully kappa, CD47 arm light chain hybrid
B6: AC42K2 H-CL1 (bispecific antibody, human IgG1, kappa, lambda)
heavy: not shown
light 1: not shown
light 2: B4 light 2
notes: as for B5
B7: AC43 (antibody, human IgG1, kappa, V domains shown)
VH: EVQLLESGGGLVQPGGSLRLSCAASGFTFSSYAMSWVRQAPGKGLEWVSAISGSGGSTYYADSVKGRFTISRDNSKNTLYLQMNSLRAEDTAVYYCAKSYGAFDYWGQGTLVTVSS
VL: DIQMTQSPSSLSASVGDRVTITCQASQNIPRTINWYQQKPGKAPKLLIYDISNLETGVPSRFSGSGSGTDFTFTISSLQPEDIATYYCQQVGLNPELTTFGQGTKVEIKR
notes: Bivalent IgG1 mAb; 6 carries the IgG1 Fc
B8: AC65 (antibody, human IgG1, kappa, V domains shown)
VH: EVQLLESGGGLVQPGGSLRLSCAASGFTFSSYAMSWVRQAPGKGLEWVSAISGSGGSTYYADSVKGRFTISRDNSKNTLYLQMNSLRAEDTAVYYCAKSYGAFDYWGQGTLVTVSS
VL: B7 VL with Q89G, Q90S, G92T
notes: as for B7
B9: AC66 (antibody, human IgG1, kappa, V domains shown)
VH: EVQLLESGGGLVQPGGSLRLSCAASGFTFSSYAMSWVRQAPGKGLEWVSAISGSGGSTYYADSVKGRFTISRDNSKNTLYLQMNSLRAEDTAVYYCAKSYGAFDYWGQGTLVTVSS
VL: B7 VL with G92T, N94D, L97E, T98N
notes: as for B7
B10: AC63 (antibody, human IgG1, kappa, V domains shown)
VH: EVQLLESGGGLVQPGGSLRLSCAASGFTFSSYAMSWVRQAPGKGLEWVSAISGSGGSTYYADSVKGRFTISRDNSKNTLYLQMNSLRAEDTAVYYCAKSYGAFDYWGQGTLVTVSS
VL: B7 VL with Q90S, G92T, N94W
notes: as for B7
B11: AC60 (antibody, human IgG1, kappa, V domains shown)
VH: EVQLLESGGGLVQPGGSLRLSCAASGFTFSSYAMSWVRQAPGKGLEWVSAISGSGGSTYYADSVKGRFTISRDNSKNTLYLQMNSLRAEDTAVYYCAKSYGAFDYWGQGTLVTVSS
VL: B7 VL with P95W, E96D, L97D, T98R, T99A
notes: Bivalent IgG1 mAb; 6 carries the IgG1 Fc; 167 is the one used in the embodiments
B12: AC42 (antibody, human IgG1, kappa, V domains shown)
VH: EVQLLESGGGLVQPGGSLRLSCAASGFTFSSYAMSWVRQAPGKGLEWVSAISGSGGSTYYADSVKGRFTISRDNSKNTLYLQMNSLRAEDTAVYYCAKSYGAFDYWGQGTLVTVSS
VL: B7 VL with N28R, P30A, I33L, D50N, I51F, N53A, N94D, E96N
notes: as for B7
B13: AC64 (antibody, human IgG1, kappa, V domains shown)
VH: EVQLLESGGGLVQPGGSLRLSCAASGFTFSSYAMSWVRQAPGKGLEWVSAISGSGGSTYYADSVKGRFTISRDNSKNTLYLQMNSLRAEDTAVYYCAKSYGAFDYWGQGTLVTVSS
VL: B7 VL with G92T, N94E, L97E, T98L
notes: as for B7
B14: AC62 (antibody, human IgG1, kappa, V domains shown)
VH: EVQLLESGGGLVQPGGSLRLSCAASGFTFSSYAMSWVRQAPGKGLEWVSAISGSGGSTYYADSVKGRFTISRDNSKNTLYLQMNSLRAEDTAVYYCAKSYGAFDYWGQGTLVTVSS
VL: B7 VL with G92T, N94E
notes: as for B7
B15: AC61 (antibody, human IgG1, kappa, V domains shown)
VH: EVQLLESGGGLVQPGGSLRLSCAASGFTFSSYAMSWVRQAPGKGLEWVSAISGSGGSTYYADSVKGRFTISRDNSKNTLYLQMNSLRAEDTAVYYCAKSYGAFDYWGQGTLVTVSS
VL: B7 VL with G92T, N94D, L97E, T98M
notes: as for B7
B16: AC41 (antibody, human IgG1, kappa, V domains shown)
VH: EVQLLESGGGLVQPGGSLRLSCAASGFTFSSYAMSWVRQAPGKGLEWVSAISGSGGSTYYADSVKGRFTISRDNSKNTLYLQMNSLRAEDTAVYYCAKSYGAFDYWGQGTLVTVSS
VL: B7 VL with N28E, P30A, R31A, I33L, D50N, I51Y, N53T, L97N
notes: as for B7
B17: AC58 (antibody, human IgG1, lambda, V domains shown)
VH: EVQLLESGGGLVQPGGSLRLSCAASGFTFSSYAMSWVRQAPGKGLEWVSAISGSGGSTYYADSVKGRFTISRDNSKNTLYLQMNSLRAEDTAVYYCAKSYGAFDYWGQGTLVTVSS
VL: QSVLTQPPSVSGAPGQRVTISCTGSSSNIGVAHDVHWYQQLPGTAPKLLIYDYSERPSGVPDRFSGSKSGTSASLAITGLQAEDEADYYCQSWDNGPNGLVWVFGGGTKLTVLG
notes: Bivalent IgG1 mAb derived from AC21 by lead optimization; 6 carries the IgG1 Fc)
B18: AC59 (antibody, human IgG1, lambda, V domains shown)
VH: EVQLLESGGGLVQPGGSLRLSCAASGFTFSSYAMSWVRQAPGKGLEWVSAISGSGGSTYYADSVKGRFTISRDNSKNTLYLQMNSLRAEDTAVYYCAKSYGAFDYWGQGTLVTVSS
VL: B17 VL with G96S, P97E, V101I, W102Y
notes: as for B17
B19: AC45 (antibody, human IgG1, lambda, V domains shown)
VH: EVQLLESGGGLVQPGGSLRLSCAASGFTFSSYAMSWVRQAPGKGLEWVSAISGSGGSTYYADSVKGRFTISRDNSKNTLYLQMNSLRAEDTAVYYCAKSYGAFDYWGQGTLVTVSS
VL: QSVLTQPPSASGTPGQRVTISCSGSSSNIVGVGVNWYQQLPGTAPKLLIYSYNKRPSGVPDRFSGSKSGTSASLAISGLQSEDEADYYCAAYDADMIVPAPVFGGGTKLTVLG
notes: as for B7
B20: AC47 (antibody, human IgG1, lambda, V domains shown)
VH: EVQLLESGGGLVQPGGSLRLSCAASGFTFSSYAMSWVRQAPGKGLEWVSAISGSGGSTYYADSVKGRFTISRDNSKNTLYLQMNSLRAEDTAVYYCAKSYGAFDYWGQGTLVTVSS
VL: B19 VL with V30N, S51G, Y52F, K54S, A94M, D95S, M96T, I97Y
notes: as for B7
B21: AC44 (antibody, human IgG1, lambda, V domains shown)
VH: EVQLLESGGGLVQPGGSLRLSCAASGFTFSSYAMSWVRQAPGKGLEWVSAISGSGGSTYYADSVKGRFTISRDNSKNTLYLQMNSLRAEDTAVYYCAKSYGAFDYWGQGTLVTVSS
VL: B19 VL with A94F, D95L, M96P, I97V, V98L
notes: as for B7
B22: AC46 (antibody, human IgG1, lambda, V domains shown)
VH: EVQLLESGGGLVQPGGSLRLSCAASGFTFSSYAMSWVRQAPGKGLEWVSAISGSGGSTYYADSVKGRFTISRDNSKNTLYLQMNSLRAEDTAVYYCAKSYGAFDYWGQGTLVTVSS
VL: B19 VL with A94F, D95S, M96L, I97L, V98L
notes: as for B7
B23: AC48 (antibody, human IgG1, lambda, V domains shown)
VH: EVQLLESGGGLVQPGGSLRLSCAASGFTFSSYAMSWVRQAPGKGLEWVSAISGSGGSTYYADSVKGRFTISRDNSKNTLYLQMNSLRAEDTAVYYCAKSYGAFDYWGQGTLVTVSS
VL: B19 VL with V30N, S51E, Y52F, D95A, M96R, I97Y
notes: as for B7
B24: AC54 (antibody, human IgG1, lambda, V domains shown)
VH: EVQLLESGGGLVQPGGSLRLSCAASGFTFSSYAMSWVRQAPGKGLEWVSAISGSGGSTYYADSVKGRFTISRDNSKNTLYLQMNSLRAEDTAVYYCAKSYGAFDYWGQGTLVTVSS
VL: QSVLTQPPSVSGAPGQRVTISCTGSSSNIHDVGYVHWYQQLPGTAPKLLIYGASGRPSGVPDRFSGSKSGTSASLAITGLQAEDEADYYCQSYDTRQVVPTPVFGGGTKLTVLG
notes: Bivalent IgG1 mAb; 6 carries the IgG1 Fc; also called CEACAM5 mAb AC54
B25: AC56 (antibody, human IgG1, lambda, V domains shown)
VH: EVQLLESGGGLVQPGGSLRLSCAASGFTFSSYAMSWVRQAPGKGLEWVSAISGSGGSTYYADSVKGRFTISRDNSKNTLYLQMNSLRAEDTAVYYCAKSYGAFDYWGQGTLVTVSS
VL: B24 VL with H30I, D31N, V32N, G33S, G52A, A53P, G55N, R96T, Q97G, V99M
notes: as for B7
B26: AC55 (antibody, human IgG1, lambda, V domains shown)
VH: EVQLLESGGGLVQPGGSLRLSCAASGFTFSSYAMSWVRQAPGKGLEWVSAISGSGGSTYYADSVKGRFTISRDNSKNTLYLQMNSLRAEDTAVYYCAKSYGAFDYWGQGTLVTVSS
VL: B24 VL with R96S, Q97A, V99F
notes: as for B7
B27: AC52 (antibody, human IgG1, lambda, V domains shown)
VH: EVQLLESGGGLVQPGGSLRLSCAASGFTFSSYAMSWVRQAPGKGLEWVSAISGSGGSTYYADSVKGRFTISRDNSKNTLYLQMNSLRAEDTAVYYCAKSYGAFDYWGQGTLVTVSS
VL: B24 VL with R96K, Q97R, V98E, V99F
notes: as for B7
B28: AC57 (antibody, human IgG1, lambda, V domains shown)
VH: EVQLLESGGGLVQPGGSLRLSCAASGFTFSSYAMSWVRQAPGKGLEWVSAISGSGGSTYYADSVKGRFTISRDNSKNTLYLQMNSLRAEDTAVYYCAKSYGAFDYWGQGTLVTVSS
VL: B24 VL with H30I, D31N, V32N, G33S, G52A, A53P, G55N, Q97F
notes: as for B7
B29: AC53 (antibody, human IgG1, lambda, V domains shown)
VH: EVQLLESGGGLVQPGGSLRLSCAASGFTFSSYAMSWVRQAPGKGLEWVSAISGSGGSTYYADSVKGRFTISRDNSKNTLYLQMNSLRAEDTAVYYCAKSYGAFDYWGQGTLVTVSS
VL: B24 VL with T95G, Q97A, V99F
notes: as for B7
B30: K2AC58 (bispecific antibody, human IgG1, kappa, lambda)
heavy: not shown
light 1: QSVLTQPPSVSGAPGQRVTISCTGSSSNIGVAHDVHWYQQLPGTAPKLLIYDYSERPSGVPDRFSGSKSGTSASLAITGLQAEDEADYYCQSWDNGPNGLVWVFGGGTKLTVLGQPKAAPSVTLFPPSSEELQANKATLVCLISDFYPGAVTVAWKADSSPVKAGVETTTPSKQSNNKYAASSYLSLTPEQWKSHRSYSCQVTHEGSTVEKTVAPTECS
light 2: not shown
B31: K2AC59 (bispecific antibody, human IgG1, kappa, lambda)
heavy: not shown
light 1: B30 light 1 with G96S, P97E, V101I, W102Y
light 2: not shown

How the values were obtained:
[1] = target: T3, human CD47 expressed at the surface of MKN45 cells (human, UniProt Q08722 19-323); experiment: inhibition of SIRPα mouseFc binding to CD47 on MKN45 cells; imaging (CX5)
T3 construct: whole, on cells; also called IAP

[2] = target: T1, human CEACAM5 expressed on MKN-45 wt …; experiment: flow cytometry on MKN-45 wt cells (express CEACAM5 and CD47)
[3] = target: T4, recombinant cynomolgus monkey CEACAM5 (cynomolgus monkey (macaca fascicularis)); experiment: ELISA; biotinylated recombinant protein on streptavidin plate; bivalent mAb titrated
T4 construct: also called cyno CEACAM5; cynomolgus CEACAM5

[4] = target: T2, biotinylated recombinant human CEACAM5; experiment: as above

T3 sequence (Q08722 19-323): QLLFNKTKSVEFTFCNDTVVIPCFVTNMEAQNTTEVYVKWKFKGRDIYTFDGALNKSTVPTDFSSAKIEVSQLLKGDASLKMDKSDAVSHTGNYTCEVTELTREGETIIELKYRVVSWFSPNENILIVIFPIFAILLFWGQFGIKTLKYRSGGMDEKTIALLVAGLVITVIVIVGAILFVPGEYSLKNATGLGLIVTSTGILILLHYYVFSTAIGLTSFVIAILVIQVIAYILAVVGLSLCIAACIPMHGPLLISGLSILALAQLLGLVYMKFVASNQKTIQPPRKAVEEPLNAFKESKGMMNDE

Binder | IC50 [1] [pM] | EC50 [2] [pM] | Emax (MFI) [2] [MFI] | EC50 [3] [pM] | EC50 [4] [pM]
B1 | 3700 | 145000 | 1.41e+06 | – | –
B2 | 3900 | 135000 | 1.77e+06 | – | –
B3 | 2900 | 123000 | 1.52e+06 | – | –
B4 | 6800 | 146000 | 1.52e+06 | – | –
B5 | 3200 | 121000 | 2.08e+06 | – | –
B6 | – | 129000 | 1.84e+06 | – | –
B7 | – | – | – | 700 | 80
B8 | – | – | – | 30 | 14
B9 | – | – | – | 10 | 12
B10 | – | – | – | 20 | 16
B11 | – | – | – | 60 | 13
B12 | – | – | – | 600 | 100
B13 | – | – | – | 30 | 16
B14 | – | – | – | 10 | 12
B15 | – | – | – | 20 | 8
B16 | – | – | – | 600 | 300

Binder | IC50 [1] [pM] | EC50 [2] [pM] | Emax (MFI) [2] [MFI] | EC50 [3] [pM] | EC50 [4] [pM]
B17 | – | – | – | 40 | 40
B18 | – | – | – | 50 | 50
B19 | – | – | – | 30 | 100
B20 | – | – | – | 60 | 30
B21 | – | – | – | 70 | 90
B22 | – | – | – | 40 | 70
B23 | – | – | – | 40 | 50
B24 | – | – | – | 20 | 30
B25 | – | – | – | 20 | 20
B26 | – | – | – | 20 | 30
B27 | – | – | – | 20 | 30
B28 | – | – | – | 20 | 10
B29 | – | – | – | 20 | 30
B30 | – | 20000 | 300000 | – | –
B31 | – | 26000 | 400000 | – | –
